From paper PMC9201815, “Rapid Quantification of C. difficile Glutamate Dehydrogenase and Toxin B (TcdB) with a NanoBiT Split-Luciferase Assay” (Analytical Chemistry, 2022)

B1: C. difficile glutamate dehydrogenase (GDH) (enzyme)
chain: MSGKDVNVFEMAQSQVKNACDKLGMEPAVYELLKEPMRVIEVSIPVKMDDGSIKTFKGFRSQHNDAVGPTKGGIRFHQNVSRDEVKALSIWMTFKCSVTGIPYGGGKGGIIVDPSTLSQGELERLSRGYIDGIYKLIGEKVDVPAPDVNTNGQIMSWMVDEYNKLTGQSSIGVITGKPVEFGGSLGRTAATGFGVAVTAREAAAKLGIDMKKAKIAVQGIGNVGSYTVLNCEKLGGTVVAMAEWCKSEGSYAIYNENGLDGQAMLDYMKEHGNLLNFPGAKRISLEEFWASDVDIVIPAALENSITKEVAESIKAKLVCEAANGPTTPEADEVFAERGIVLTPDILTNAGGVTVSYFEWVQNLYGYYWSEEEVEQKEEIAMVKAFESIWKIKEEYNVTMREAAYMHSIKKVAEAMKLRGWY
B2: Nanobody E3 (VHH)
chain: QVQLVESGGGLVQTGGSLRLSCASSGSIAGFETVTWSRQAPGKSLQWVASMTKTNNEIYSDSVKGRFIISRDNAKNTVYLQMNSLKPEDTGVYFCKGPELRGQGIQVTVSS
notes: also called TcdB nanobody E3
B3: Nanobody 7F (VHH)
VHH: QVQLVESGGGLVEAGGSLRLSCVVTGSSFSTSTMAWYRQPPGKQREWVASFTSGGAIKYTDSVKGRFTMSRDNAKKMTYLQMENLKPEDTAVYYCALHNAVSGSSWGRGTQVTVSS
notes: also called TcdB nanobody 7F

Assays:
Affimer 4 = assay: SPR; biotinylated Affimer/nanobody immobilised on a streptavidin chip, titrated with serial dilutions of analyte; fit to 1:1 Langmuir model
[1] = target: inactivated toxoid B (TxB) (C. difficile, inactivated toxoid (how it was inactivated is not stated)); assay: SPR; details: both partners purified

Sequence of Affimer 4 (main, as listed by the source): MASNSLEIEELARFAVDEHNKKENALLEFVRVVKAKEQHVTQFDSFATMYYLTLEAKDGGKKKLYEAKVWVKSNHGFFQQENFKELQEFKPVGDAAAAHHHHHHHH

Binder | Kd (Affimer 4) [nM] | koff (Affimer 4) [s⁻¹] | kon (Affimer 4) [M⁻¹ s⁻¹] | Kd [1] [nM] | koff [1] [s⁻¹] | kon [1] [M⁻¹ s⁻¹]
B1 | 19 | 0.00081 | 44000 | – | – | –
B2 | – | – | – | 2.5 | 0.00025 | 100000
B3 | – | – | – | 33 | 0.0009 | 28000
